Test results from patent US20190017043A1.

Target: MBP-Z-N6K (Z-domain protein with Asn6 mutated to Lys, fused with maltose binding protein) [MBP: P0AEX9]
Test: covalent protein-protein cross-linking after sodium periodate treatment, 4 hours, SDS-PAGE

Substance “AFB-D36DOPA (ZSPA affibody with L-DOPA genetically incorporated at position 36) (designed binder)” has a cross-linked products of 70 to 75%.
